Results: publication PMC3660260

Tests used:
[1] = target: HCV envelope glycoprotein E2 (in lysate of HCV-infected Huh7.5 cells) (hepatitis C virus (strain not stated)) (UniProt Q99IB8)
[2] = target: HCV envelope glycoprotein E2 (in lysate of HCV-infected Huh7.5 cells) (hepatitis C virus (strain not stated)) (UniProt Q99IB8); remark: listed apart in the source

UniProt Q99IB8, sequence (Q99IB8 384-750): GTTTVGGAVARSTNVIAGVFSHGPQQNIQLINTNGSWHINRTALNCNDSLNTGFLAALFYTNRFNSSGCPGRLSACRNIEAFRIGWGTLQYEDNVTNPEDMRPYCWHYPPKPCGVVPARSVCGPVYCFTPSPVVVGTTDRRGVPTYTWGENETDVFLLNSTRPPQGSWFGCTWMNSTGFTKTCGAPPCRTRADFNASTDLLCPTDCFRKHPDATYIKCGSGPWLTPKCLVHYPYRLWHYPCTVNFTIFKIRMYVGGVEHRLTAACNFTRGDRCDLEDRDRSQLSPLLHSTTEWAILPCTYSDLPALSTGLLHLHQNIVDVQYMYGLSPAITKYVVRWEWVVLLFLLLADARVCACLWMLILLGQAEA

Row | Substance | EC50 for inhibition of HCV JFH-1 (genotype 2a) in the HCVcc full-replication assay in Huh7.5.1 cells (HCV core protein in supernatant) [1] [nM] | EC50 for inhibition of replication of JFH-1 (genotype 2a) HCVcc in Huh7.5.1 cells [2] [nM] | EC50 for inhibition of replication of the J6/JFH-1 HCVcc chimera (structural genes of genotype 2a J6) in Huh7.5.1 cells [2] [nM] | EC50 for inhibition of replication of the TH/JFH-1 HCVcc chimera (structural genes of genotype 1b TH) in Huh7.5.1 cells [2] [nM]
1 | griffithsin (from UniProt P84801 1-121) (natural protein) | 0.4 | 0.3 | 14 | 2.2
2 | scytovirin (from UniProt P86041 1-95) (natural protein) | 16.9 | 3.2 | 50.8 | 57.5
